The source of these data is paper PMC7596504, “Molecular mechanism of the MORC4 ATPase activation” (Nature Communications, 2020).

Series [1] relates to MORC4 ATPase domain (Homo sapiens). Nature of the series: fluorescence polarization. The conditions noted are these: EMSA DNA: 20 mM Tris-HCl pH 7.5, 150 mM NaCl, 2.5 mM MgCl2, 2 mM DTT, on ice; EMSA NCP: 25 mM Tris-HCl pH 7.5, 75 mM NaCl, 0.005% Tween 20, 10% glycerol, 4 C ….
Series [2] relates to MORC4 ATPaseCW (Homo sapiens). Nature of the series: fluorescence polarization. The conditions noted are these: EMSA DNA: 20 mM Tris-HCl pH 7.5, 150 mM NaCl, 2.5 mM MgCl2, 2 mM DTT, on ice; EMSA NCP: 25 mM Tris-HCl pH 7.5, 75 mM NaCl, 0.005% Tween 20, 10% glycerol, 4 C …. A general note: Fluorescence polarisation rises when a labelled molecule tumbles more slowly, as on binding a larger partner.

For another series, the system named is LexA. Nature of the series: FRET. The conditions noted are these: EMSA DNA: 20 mM Tris-HCl pH 7.5, 150 mM NaCl, 2.5 mM MgCl2, 2 mM DTT, on ice, EMSA NCP: 25 mM Tris-HCl pH 7.5, 75 mM NaCl, 0.005% Tween 20, 10% glycerol, 4 C …. (Mobility shift assays separate free from complexed probe on a gel.)
The next series relates to Gal4 DNA-binding domain. Nature of the series: FRET. The conditions noted are these: EMSA DNA: 20 mM Tris-HCl pH 7.5, 150 mM NaCl, 2.5 mM MgCl2, 2 mM DTT, on ice, EMSA NCP: 25 mM Tris-HCl pH 7.5, 75 mM NaCl, 0.005% Tween 20, 10% glycerol, 4 C ….

Consider NCP147, for which the K half in series [1] is 2300 nM; in series [2], 400 nM.
On to NCP147 LexA, for which the K half in the series with LexA (1 uM MORC4 ATPaseCW) came out at 2400 nM; in the series with LexA (no MORC4), 900 nM.
For the substance NCP207, the K half in series [1] worked out at 500 nM; in series [2], 200 nM.
For the substance NCP252 Gal4, the K half in the series on Gal4 DNA-binding domain (no MORC4) turned out to be 20 nM; in the series with Gal4 DNA-binding domain (saturating MORC4 ATPaseCW, 0.3 mM ATP), 100 nM; with Gal4 DNA-binding domain (saturating MORC4 ATPaseCW, no ATP), 40 nM.
